One molecule from patent US8420311B2, “Method to block the infection by flaviviruses, molecules and uses” (Centro de Ingenieria Genetica y Biotecnologia, priority 2006, dated 2013) can be followed below.

One assay deals with DV2 S16803. As to the kind of experiment: Inhibition of the infection of Vero cells by a natural ligand of the A2MR receptor or anti-receptor antibodies (lytic plaques). The format is cell-based, dengue virus. Here is the method: FIG. 8. Effect of recombinant RAP on the infection of Vero cells with DV2, strain S16803. Vero monolayers at 90% confluence were pre-incubated with different dilutions of RAPR13 or BSA, for 1 hour at 37° C., followed by the addition of the viral preparation at a multiplicity of infection of 1 and another incubation at 37° C. for 1 hour. After eliminating the unbound viruses, MEM medium supplemented with non-essential aminoacids, 1% FCS and 1% CMC was added, and the cells were incubated for 5 days at 37° C. The lytic plaques were visualized by staining the monolayer with Naphtol Blue Black. The assays were performed in 24-well plates, using duplicates for each point of the assay.
Vero cells were grown in 24-well plates to approximately 90% confluence, and washed twice with MEM medium without FCS. The dilutions containing the proteins or the antibodies, according to the objective of the assay, were then added and incubated for 1 hour at 37° C. After the incubation, the virus was added at a multiplicity of infection of 0.1, followed by a subsequent incubation for 1 hour at 37° C. […] The inhibition percentage was calculated according to the expression […]

A further assay has as its system Vero cells. The assay can be described thus: Binding of fluoresceinated proteins to the surface of Vero cells (flow cytometry). The format is cell-based, monkey. The method, then:
FIG. 7. Inhibition of the binding of DIIIE2J to Vero cells by A2M and RAPR13. The pre-fixed cells were incubated with the fluoresceinated proteins, and the intensity of the fluorescence due to binding of the fluoresceinated ligands to the cells was measured by flow cytometry. Each experimental point represents data gathered from a minimum of 20 000 cells. (A) Binding of A2M and RAPR13 to the cells. The depicted values correspond to the average of the intensity of the fluorescence at each point of the assay minus the fluorescence obtained with untreated cells. (B) and (C) The cells were incubated with fluoresceinated DIIIE2J in the presence or absence of the non-fluoresceinated ligands, using the molar ratio indicated on each case. The % binding was calculated from the ratio of the average intensity of the fluorescence of the cells incubated with the mixture of fluoresceinated DIIIE2J plus the proteins, between that of the cells incubated only with fluoresceinated DIIIE2J.
In the case of cultured Vero cells, they were detached from the surface of the culture flask without using proteases, by incubation with PBS pH 7.4, 5 mM EDTA for 10 min. at 37° C., gently tapping the outside of the flask.
The cells, collected and washed as described above, were incubated in fixing solution (PBS pH 7.4, 2% paraformaldehyde, 0.01% NaN3, 1 mM CaCl2, 1 mM MgCl2 for 30 min at 4° C., and the fixing solution was then eliminated by centrifugation at 350×g for 5 min a 4° C. […] The intensity of the fluorescence was quantified by flow cytometry on a PAS III cytometer (Partec, Germany). The values for each experimental point were calculated from measurements on a minimum of 20 000 cells.
Given that this cell line is derived from monkey kidney cells and that the ligands for the A2MR receptor used in the assays are of human origin, a preliminary and necessary step was the corroboration of the binding of the RAPR13 and A2M MeNH2 proteins to Vero cells. With this aim, these proteins were fluoresceinated, and their binding to the surface of Vero cells was measured using flow cytometry. […]

A further assay concerns DV1 West Pac 74. The assay can be described thus: Inhibition of the infection of Vero cells by a natural ligand of the A2MR receptor or anti-receptor antibodies (lytic plaques). The format is cell-based, dengue virus. Conditions: inhibition percentage; RAP13 and BSA 100 μg/mL, antibody preparations 1/100 dilution; average of three determinations. The method, then:
(§1) Vero cells were grown in 24-well plates to approximately 90% confluence, and washed twice with MEM medium without FCS. The dilutions containing the proteins or the antibodies, according to the objective of the assay, were then added and incubated for 1 hour at 37° C. After the incubation, the virus was added at a multiplicity of infection of 0.1, followed by a subsequent incubation for 1 hour at 37° C. At the end of the second incubation, the unbound virus was eliminated by washing, and the cells were incubated for 5 days at 37° C. in high density medium (MEM supplemented with non essential aminoacids, 1% FCS, 1% carboxymethylcellulose) in order to propitiate the appearance of lytic plaques. The plaques were visualized by staining with 0.1% Naphtol Blue Black in 0.15 Mol/L sodium acetate. Two replicates were used per experimental point in each assay, and three independent determinations were performed. The inhibition percentage was calculated according to the expression
(§2) The assay for the inhibition of infection was performed on 24-well plates seeded with a monolayer of Vero cells at approximately 90% confluence. The dilution of the virus was adjusted to obtain approximately 20 lytic plaques per well. […] There were no significant reductions when the cells were pre-incubated with BSA or with antibody preparations against an unrelated antigen.

In another assay the test system is DV3 CH53489. Described as above. The format is cell-based, dengue virus. Conditions: inhibition percentage; RAP13 and BSA 100 μg/mL, antibody preparations 1/100 dilution; average of three determinations. Here is the method:
as §1, §2

A further assay relates to DV4 TVP360. The assay is described as above. Type of assay: cell-based, dengue virus. The conditions noted are these: inhibition percentage; RAP13 and BSA 100 μg/mL, antibody preparations 1/100 dilution; average of three determinations. The method, then: as §1, §2

B1: RAPR13: recombinant human LRPAP1 (RAP) protein with N-terminal tag of 6 histidines, SEQ ID. 26 (protein, listed as Homo sapiens)
chain: MGSSHHHHHHSSGLVPRGSHMYSREKNQPKPSPKRESGEEFRMEKLNQLWEKAQRLHLPPVRLAELHADLKIQERDELAWKKLKLDGLDEDGEKEARLIRNLNVILAKYGLDGKKDARQVTSNSLSGTQEDGLDDPRLEKLWHKAKTSGKFSGEELDKLWREFLHHKEKVHEYNVLLETLSRTEEIHENVISPSDLSDIKGSVLHSRHTELKEKLRSINQGLDRLRRVSHQGYSTEAEFEEPRVIDLWDLAQSANLTDKELEAFREELKHFEAKIEKHNHYQKQLEIAHEKLRHAESVGDGERVSRSREKHALLEGRTKELGYTVKKHLQDLSGRISRARHNEL
modifications: N-terminal His6 tag
B1: in the assay on DV2 S16803 (inhibition percentage, RAP13 and BSA 100 μg/mL, antibody preparations 1/100 dilution, average of three determinations), the “inhibition of the infection, DV2” value was 76. The “inhibition of the infection for DV2, concentration dependence” value in the assay with DV2 S16803 (lytic plaque reduction assay, dilutions of RAPR13 (FIG. 8)) is “dependent on the protein concentration”. For the same molecule, the “binding to the surface of Vero cells” value in the assay on Vero cells (fluoresceinated proteins (FIG. 7A)) was “concentration-dependant and saturable binding behavior”. The “binding of fluoresceinated A2M_MeNH2 to Vero cells in the presence of unlabelled protein” value in the assay on Vero cells (unlabelled protein at 100-fold molar excess, 30 min. at 4° C. (FIG. 7B)) is on record as “decrease in fluorescence”. Also, in the assay with DV1 West Pac 74, the “inhibition of the infection, DV1” value stood at 65. In addition, the “inhibition of the infection, DV3” value with DV3 CH53489 is reported as 60. Besides, the “inhibition of the infection, DV4” value with DV4 TVP360 was 75.
